Reference: publication PMC7878476, “Regulatory inter-domain interactions influence Hsp70 recruitment to the DnaJB8 chaperone” (Nature Communications, 2021)
Values joined by “and” are separate entries in the source; they are usually repeats but may differ in a detail not shown here. Identical values can stand only once.

B1: DnaJB8–mClover3 fusion protein (natural protein, human, UniProt Q8NHS0 1-232, looked up)
chain: MANYYEVLGVQASASPEDIKKAYRKLALRWHPDKNPDNKEEAEKKFKLVSEAYEVLSDSKKRSLYDRAGCDSWRAGGGASTPYHSPFDTGYTFRNPEDIFREFFGGLDPFSFEFWDSPFNSDRGGRGHGLRGAFSAGFGEFPAFMEAFSSFNMLGCSGGSHTTFSSTSFGGSSSGSSGFKSVMSSTEMINGHKVTTKRIVENGQERVEVEEDGQLKSVTVNGKEQLKWMDSK
notes: also called DnaJB8–Clover; source: HEK293T polyclonal lentiviral cell line, isolated from lysate with His-tagged anti-GFP nanobody on Ni-NTA resin
B2: recombinant full-length DnaJB8 (wild type) (natural protein, human, UniProt Q8NHS0 1-232, looked up)
chain: B1 chain
notes: pET-29b; no tag removal is described; also called WT DnaJB8; source: E. coli BL-21 (DE3), purified from the insoluble fraction (8 M guanidinium HCl, Ni-NTA), dialysed, lyophilised
B3: isolated C-terminal domain of DnaJB8, CTD_(170–232) (domain or fragment, human, UniProt Q8NHS0 170-232, looked up)
chain: GGSSSGSSGFKSVMSSTEMINGHKVTTKRIVENGQERVEVEEDGQLKSVTVNGKEQLKWMDSK
notes: source: E. coli BL-21 (DE3), purified (TALON, Superdex 200)
B4: FITC-labeled JD_(1–82) of DnaJB8 (domain or fragment, human, UniProt Q8NHS0 1-82, looked up)
chain: MANYYEVLGVQASASPEDIKKAYRKLALRWHPDKNPDNKEEAEKKFKLVSEAYEVLSDSKKRSLYDRAGCDSWRAGGGASTP
modifications: FITC (labeled with 10× FITC-maleimide; site not stated)
notes: DnaJB8, human, J-domain, residues 1-82; Same construct as m4, with the fluorescein label; also called JD_(1–82)-FITC; JD_(1–82)–FITC; source: E. coli BL-21 (DE3), purified (TALON, Superdex 200), labeled with FITC-maleimide, excess dye removed by Superdex 75

Experiments:
[1] = biological target: the molecule itself; assay: cross-linking; DnaJB8–Clover held on anti-GFP nanobody/Ni-NTA beads, 1× PBS, 57 mM ADH + 36 mM DMTMM, 1 min at 37 °C; eluate analysed by MS and western blot
[2] = biological target: the molecule itself; assay: dynamic light scattering; 1.2 mg/mL in 1× PBS, 1 mM DTT, pH 7.4, room temperature, time course over about 20 h; 150 mM or 285 mM NaCl for full-length DnaJB8
[3] = biological target: B4; assay: fluorescence polarisation; 0.2 μM FITC-JD_(1–82) with a titration of Hsp70 or CTD_(170–232) (150–0 μM) in 1× PBS, 1 mM TCEP, pH 7.4; one site-specific binding fit; details: both partners purified
human Hsp70 (HspA1A) = biological target: T1, human Hsp70 (HspA1A) (human, UniProt P0DMV8 1-641); assay: as above; details: both partners purified
T1 construct: HspA1A (Hsp70), human; HspA1A gene cloned into pMCSG7; no tag cleavage is described; source: E. coli BL-21 (DE3), purified (TALON, HiTrap Q anion exchange, Superdex 200)
T1 sequence (P0DMV8 whole entry): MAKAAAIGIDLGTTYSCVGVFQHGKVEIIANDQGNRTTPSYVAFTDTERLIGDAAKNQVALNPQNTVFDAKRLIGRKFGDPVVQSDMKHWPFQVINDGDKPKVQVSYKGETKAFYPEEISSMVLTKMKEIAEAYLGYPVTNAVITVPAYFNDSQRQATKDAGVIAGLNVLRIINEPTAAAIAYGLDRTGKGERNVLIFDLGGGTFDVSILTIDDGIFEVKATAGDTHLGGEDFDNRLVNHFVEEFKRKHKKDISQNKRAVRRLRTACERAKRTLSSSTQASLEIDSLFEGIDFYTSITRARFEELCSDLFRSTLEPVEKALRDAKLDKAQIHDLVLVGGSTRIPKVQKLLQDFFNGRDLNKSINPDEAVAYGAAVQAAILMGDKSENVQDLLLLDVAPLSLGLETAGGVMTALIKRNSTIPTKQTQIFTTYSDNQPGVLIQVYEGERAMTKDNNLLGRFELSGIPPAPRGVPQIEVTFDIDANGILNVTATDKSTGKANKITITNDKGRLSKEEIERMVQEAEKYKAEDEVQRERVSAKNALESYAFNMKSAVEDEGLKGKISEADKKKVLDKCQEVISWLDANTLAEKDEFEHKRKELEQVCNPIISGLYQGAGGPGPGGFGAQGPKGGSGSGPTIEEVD

B1
binding result [1]: binds

B2
binding result [2]: binds

B3
Kd [3]: 4.4 µM and 6.21 µM and 4.43 µM

B4
Kd (human Hsp70 (HspA1A)): 0.413 ± 0.057 µM
